Measured values taken from US20140005125A1 (Molecular Partners, published 2014).

What was measured:
[1] = biological target: T1, Recombinant human PDGF-BB (human, UniProt P01127 82-190); test: SPR (ProteOn), biotinylated PDGF-BB on neutravidin chip, DARPin injected; Kd from on- and off-rates
T1 construct: For SPR it was chemically biotinylated on primary amines and captured on neutravidin; also called PDGF-BB (human); Reliatech 200-055
Experimental: (§1) Biotinylated PDGF-BB molecules from human and mouse were immobilized in a flow cell through binding to coated […] and the interaction with various selected DARPins was analyzed.
(§2) SPR was measured using a ProteOn instrument (BioRad) and measurement was performed according standard procedures known to the person skilled in the art. The running buffer was PBS, pH 7.4, containing 0.005% Tween 20®. Neutravidin was covalently immobilized on a GLC chip (BioRad) to a level of about 8000 resonance units (RU). Immobilization of PDGF-BB on the neutravidin coated chip was then performed. The interaction of DARPin PDGF-BB was then measured by injecting 100 μl running buffer (PBS containing 0.005% Tween®) containing serial dilutions of DARPins of concentration of […] (on-rate measurement), followed by a running buffer flow for between 10 minutes and up to 3 hours at a constant flow rate of 30 μl/min (off-rate measurement). The signals (i.e. resonance unit (RU) values) of an uncoated reference cell and a reference injection (i.e. injection of running buffer only) were subtracted from the RU traces obtained after injection of […] (double-referencing). From the SRP traces obtained from the on-rate and off-rate measurements the on- and off-rate of the corresponding DARPin PDGF-BB interaction can be determined.
(§3) Dissociation constants (Kd) were calculated from the estimated on- and off-rates using standard procedures known to the person skilled in the art.

[2] = biological target: T2, Recombinant murine PDGF-BB (mouse, UniProt P31240 82-190, limits assumed); test: as above
T2 construct: For SPR chemically biotinylated on primary amines and captured on neutravidin; also called mouse PDGF-BB; PDGF-BB (mouse)
T2 sequence (P31240 82-190 limits assumed): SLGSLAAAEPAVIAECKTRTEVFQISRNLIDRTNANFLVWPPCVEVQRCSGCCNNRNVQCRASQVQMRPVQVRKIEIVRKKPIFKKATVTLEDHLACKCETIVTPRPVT
Experimental: as §1, §2, §3

[3] = biological target: T1, Recombinant human PDGF-BB; test: receptor competition ELISA: DARPin preincubated with PDGF-BB, free PDGF-BB captured on coated PDGFRbeta/Fc; mean IC50
Experimental: (§4) The potency of PEGylated anti-PDGF-BB DARPins to inhibit the binding of human PDGF-BB to its receptor PDGFRbeta was determined in a in a receptor competition ELISA (based on PDGF-BB Quantikine, R&D Systems). PDGFRbeta/Fc chimera has been precoated on a microplate. The DARPins were preincubated in assay diluent from the PDGF-BB Quantikine kit (R&D Systems) with a defined amount of PDGF-BB and incubated at room temperature for 2 hours with shaking at 750 rpm. These preincubation mixtures were then transferred into the precoated wells and any PDGF-BB that is not blocked by the DARPins was bound by the immobilized receptor. After washing away any unbound substances, a horse radish peroxidase-linked polyclonal antibody specific for PDGF-BB was added to the wells. Following a wash to remove any unbound antibody-enzyme reagent, a substrate solution was added to the wells and color was developing in proportion to the amount of PDGF-BB bound. The color development was stopped and the intensity of the color was measured at […]. Example titration curves are given for a set of DARPins in FIG. 2. IC₅₀ values were calculated from such titration curves obtained as described above using Graph Pad Prism software and standard procedures known to the person skilled in the art.

[4] = biological target: T1, Recombinant human PDGF-BB; test: cell-based or functional assay
[5] = biological target: T1, Recombinant human PDGF-BB; test: receptor competition ELISA (PDGFRbeta), distinct single experiment of FIG. 2
Experimental: The inhibition of the binding of PDGF-BB to PDGFRbeta by various concentrations of DARPins with specificity for PDGF-BB and the corresponding fitted inhibition curves are shown for a distinct single experiment. The IC₅₀ values were then calculated to be about 20 and 18 pM for the DARPins #50 (D1) and #28 (D2), respectively. OD, optical density at 450 nm; C, concentration of DARPins in pM. The X axis is shown in logarithmic scale. See below for the definitions of DARPin #50 and 28.
as §4, with “After washing away any unbound substances, a horse radish peroxidase-linked polyclonal antibody specific for PDGF-BB was added to the wells. Following a wash to remove any unbound antibody-enzyme reagent, a substrate solution was added to the wells and color was developing in proportion to the amount of PDGF-BB bound.” left out, “Example titration curves are given for a set of DARPins in FIG. 2.” left out

T1 sequence (P01127 82-190 limits assumed): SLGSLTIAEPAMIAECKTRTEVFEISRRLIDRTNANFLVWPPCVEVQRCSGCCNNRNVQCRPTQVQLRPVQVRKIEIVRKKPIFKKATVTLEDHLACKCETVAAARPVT

Row | Binder | Kd [1] [nM] | Kd [2] [nM] | IC50 [3] [nM] | IC50 of inhibition of NIH-3T3 cell proliferation (WST-1) [4] [nM] | IC50 [5] [nM]
1 | DARPin #34 (designed binder) MRGSHHHHHHGSDLGDKLLQSDLGRKLLHAARSGQDDEVRILLAAGADVNAKDEDGTTPLHYAAAWGHLEIVEVLLKAGADVNAQDIYGATPADLAAYIGHEDIAEVLQKLN | 0.0775 | 0.0592 | 0.21 | – | –
2 | DARPin #49 (designed binder) MRGSHHHHHHGSDLGKKLLEAARAGQDDEVRILMANGADVNAQDLNGQTPLHLAADIGHLEIVEVLLKHGADVNAQDYAGSTPLRLAAWAGHLEIVEVLLKNGADVNANDYFGYTPLHLAAYFGHLEIVDVLLKHGADVNAQDKFGKTAFDISIDNGNEDLAEILQKLN | 0.0769 | 0.102 | 0.066 | 1.9 | –
3 | DARPin #59 (designed binder) MRGSHHHHHHGSDLGKKLLEAARAGQGDEVHILMANGADVNAQDLNGQTPLHLAADIGHLEIVEVLLKHGADVNAQDYAGSTPLRLAAWAGHLEIVEVLLKNGADVNANDYFGYTPLHLAAYFGHLEIVEVLLKHGADVNAQDKFGKTAFDISIDNGNEDLAEILQKLN | 0.171 | – | – | 2 | –
4 | DARPin #50 (designed binder) MRGSHHHHHHGSDLGKKLLEAARAGQDDEVRELLKAGADVNAKDLNGQTPLHLAADIGHLEIVEVLLKAGADVNAKDYAGSTPLRLAAWAGHLEIVEVLLKAGADVNAKDYFGYTPLHLAAYFGHLEIVEVLLKAGADVNAQDKFGKTAFDISIDNGNEDLAEILQKLN | 0.115 | – | 0.032 | – | ~0.02
5 | DARPin #24 (designed binder) MRGSHHHHHHGSDLGKKLLEAARAGQDDEVRELLKAGADVNAKDEEGTTPLHYAAVWGHLEIVEVLLKAGADVNAQDIYGATPADLAALVGHEDIAEVLQKLN | 0.0301 | – | 0.015 | 1.4 | –
6 | DARPin #28 (designed binder) MRGSHHHHHHGSDLGKKLLEAARAGQDDEVRILMANGADVNAKDEEGTTPLHYAAVWGHLEIVEVLLKAGADVNAQDIYGATPADLAALVGHEDIAEVLQKLN | 0.0171 | – | 0.016 | 1.6 | ~0.018
7 | DARPin #38 (designed binder) MRGSHHHHHHGSDLGDKLLWAAKHGQDDEVRILLAAGADVNAKDDEGSTPLHYAAVWGHLETVEVLLKAGADVNAQDIWGATPADLAALLGHEDIAEVLQKLN | 0.0941 | 0.0583 | 0.085 | – | –
8 | DARPin #30 (designed binder) MRGSHHHHHHGSDLGKKLLEAARAGQDDEVRELLKAGADVNAKDEEGTTPLHYAAVYGHLEIVEVLLKAGADVNAQDIYGATPADLAALVGHEDIAEVLQKLN | 0.11 | – | 0.49 | 3.2 | –
9 | DARPin #44 (designed binder) MRGSHHHHHHGSDLGAKLLHAAVVGQDDEVRILLAAGADVNAKDKSGHTPLHLAAYSGHLEIVEVLLKAGADVNAKDQEGTTPLHFAASVGHLEIVEVLLKAGADVNAQDHYGATPADLAALIGHEDIAEVLQKLN | 0.0768 | 0.0902 | 0.13 | – | –
